These are literature values, as cited in publication PMC10276003.

The data set addresses GRB2 (Homo sapiens) (UniProt P62993).

GRB2, sequence (P62993 whole entry): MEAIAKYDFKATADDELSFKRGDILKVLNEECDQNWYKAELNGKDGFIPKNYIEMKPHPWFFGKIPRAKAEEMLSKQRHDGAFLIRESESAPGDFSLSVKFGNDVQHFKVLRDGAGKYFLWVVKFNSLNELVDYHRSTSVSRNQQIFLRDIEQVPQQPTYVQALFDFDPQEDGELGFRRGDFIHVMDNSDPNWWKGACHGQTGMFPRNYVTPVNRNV

The term Kd denotes the constant that tells how readily two partners part at equilibrium. Turning to GRB2 (from UniProt P62993), the Kd was 700 nM.
